Measured values published in the domain aggregation screens of Martell et al. (2025).

Experiment: soluble fraction after stress (log2 fold change); higher = more stays soluble; pooled small domains, quantitative proteomics
Conditions: stress: 50 degC
Summary of the method: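 The measure of aggregation propensity here is the base-two logarithm of the fold change in the soluble amount of each protein after stress. A higher value means more of that protein stays in solution. Stress was applied at 50°C to pooled libraries of small protein domains, read out by high-throughput quantitative proteomics.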

| Sequence | soluble fraction (log2) |
| --- | --- |
| HMLLPGEELRVMIIQEGKEYGQGVGYLDDGTMVVVEDGQRALNRTENVVVTKVLQTTAGRMIFAK | -0.631 |
| HMVTQVDYGTFLTRIDEGKVKSVEIQDNQIAFTAIDEAGKENIYVTGKVNDPELVDRLLAADIEDFSQVIP | 0.12 |
| HMDSSNLSLIAGVGPTIEKKLRAAGITSWEQIAAWTEADVAKYDEELNLRGRITRDEWIEQAKELLAGKPP | -0.0993 |
| HMEQVPEAVGRRVRQARSDRGWTLDQLAERSEVSRRMIVNVEAGTSNASIATLLRLATALNVGLAELVA | -1.41 |
| HMASSVKAPLPGVILDIKVKVGDTIKNGDTVVILEAMKMENNIHSDKDGVVKSIEVNKGDSVLEGATLLTI | -0.0654 |
| HMHQPPDLDDFEAFVGRVKPALLQALVATYGPVDGREATVDALSWAWEHWDRLADVDHPVGYLYRV | 0.0368 |
| HMAKSPYDVLGLKEDAPFDEVKKRYRELVKKYHPDILMGRGESEEMIEKSTRKLQEINEAYETIKQRA | 0.118 |
| HMIKLIKKDTNISELKMSKMPWDVMLYGKPYQVVSIKGYVHTIGGRRGENDLWMYPRDESPTYENLIEFQ | -2.61 |
| HMTEISGIEKFLASGAINGIGPAMAKKIVAEFGEKTLEIIAKSPNELLKVPGIGKKTAEKISTSYLEQ | -0.0669 |
| HMSPFAHHLHELRMRHGIRQNELAELIGYDQTYISALEVGLKGPPTPEFVDKLVEGLALSRTEEAALRSAA | -0.482 |
| HMDSESGAIIRRAVAQLAPKFRSTIVLRLIEGYSTEETAQILQLPVGTVLSRLARAKVQLMNLLTPYKEL | -0.126 |
| HMNRTKQIYNELLFRLDQGVYPPESKFPSESQLADEFSVSKVTMNKIVSMLASSGRLSRGVRGAGTFVSSP | -0.775 |
| HMGNIIITPNPASDFIKIISNSPIIKFGFYDIYGNTINKKFNDNSINISDLPVGMYLINLNERYFKLLK | -0.0951 |
| HMNISLGALVTITDQKGRSHTVTLESGKQFFTNHGSINHDEIIKAGEGGVVASSSGMLYTIFTP | -0.836 |
| HMFKITNTLNKTAEVYLTIPENKKGKGKIMISVNGAFHELEAMTENDKIQSGAVVKVVRIENDNILIVET | -1.88 |
| HMTYQTVRYGSTGSAVRQLQSALNQKGYQLSEDGIFGAKTRAAVRDYQKKNGLLLDGIAGSQTWNHLMS | 0.224 |
| HMFFDSDTDIQNALNAENSIKKYQLFRTQTLYNSAQSDIDFVNQPEVKAKLFDALENLKNKLGFLAEPT | -0.247 |
| HMVMAELRISVDRLQIGNYIKLPLSWRDHPFLLSSFMIKKEEQIQLIRQLRLKHVFIIPEKSDAPPKPA | -4.15 |
| HMSLHSITIPQEFIGAVIGPGGKVIQEIQKQTGTTITITEKDNKGYVDIFGEDKGALDSALARIKEIVAIP | 0.182 |
| HMTKNEFLASFQNELQKRHIPDWEDVVSEYEQHFALKQADGFSEEEIAAKLGAPAELAAQFEA | -0.0437 |
| HMHPNPLTEQEIAVLKGIAQGLSNQEIADQLYLSNGTVRNYVTNILSKLDAGNRTEAANIAKESGW | 0.143 |
| HMSFGFFELKSSDTDKLFAYLNNNEHFGNIKEENGLVTAFLTSELDAQTLNKLLFDNGIIASHLVKRK | -0.51 |
| HMDENDPYEILEIDRLASDDQVKAKYRALIRENHPDVLMAKGVPQEFIDLANRKMAVINAAYDRIEKEREF | -0.0184 |
| HMGPSLIRIASNPVAEVFIDGTRVGTTPFEMPADGTLKTVRLTAKDHDDLVVPLRSMKSMEIMLTLRRI | -0.589 |
| HMTKYKEIVDQLRTNIYEGVFPALSKLPEQTALAKRFQTSRMTIQKALNQLKQEGLISTKRGHGTYVNSAT | -0.298 |

| Sequence | soluble fraction (log2) |
| --- | --- |
| HMEHLTATERHLVAYLEAHLGQVPSLSITKLSQEANVSTASIVRTMKKLGYDGFTAFKHAIKQQLR | -1.77 |
| HMPASVEYIRLAAEQMTGQQVTIIEQPGNYAFILRIHLNDIYSLDLAALRARIDELKPAHLTYTVEQYD | -2.71 |
| HMTPNATWQDDAQSLLRDLIQHQPVLIQISAAKRLRDQAEQISRITGGDTVTRDHVEAAGHALGMGVT | 0.0517 |
| HMLPGERFKVKIAQAGKEKKQGIGYLNDGTMVVIENGIEKVGEEVEAVVIKVIQSSAGKIIFSEVAK | 0.195 |
| HMINLGDLEVGHTYHTRMPILQNDLKYSHKSPIQIVAEHSIVYGVRVYIGFLNEHRVLVTADDV | 0.0223 |
| HMDRYAVRAEELAAALAQYHRHVGVYPENLEDLIAPTGPRGYRGPYLSELPTNPSTSKPDWGYDPATGRVS | 0.198 |
| HMADPAVLIAELFRAMPEKRFSVKNLISATGAETREQKDYVREVVHSLSREGMIEQVAEGKYRLSASE | 0.171 |
| HMVWNVEQIKRAVDQLPDGYRVVFTLYLFEGYDHREIADILGISEGGSKSQFNRAKSKLKEILTAMS | -1.98 |
| HMPTITSPMVGTFYRAPSPGAAPFIEVGDTVKKGQVIGIIEAMKLLNEVEADKDGVVQAFAAENGEL | 0.262 |
| HMDGISANAVKALIESLIAGEDKRKPLSDQAMSDRLALQGIVLARRTVAKYREELNFPPAHQRKQK | -0.572 |
| HMKKSIRIFELMKAKVAAEIFDQMILEGKIEDVFDIIVRLKDSNVSNIMKTMSVENSSRLVQKLERYNKD | -2.18 |
| HMLAKRYLVYGSGSLNSAYPDTKNIAYGIDSGKGFFLVGILTENEASKLKLKGYYVIEDFPLDFH | -1.43 |
| HMVRDGDTFVVPKMDRFARNVEDTLHLVRELTERGVIFQMGHTVYDPHDPWSKLFLTFLAAIAEA | -0.00927 |
| HMPAEGWEASGDTWRYRQKDGSYITNAWVQDTDGKWYYFDESSLMVRNQTTSDGYYVGEDGVWTET | -0.395 |
| HMPLTKKLETLFSLFPKYEKELKKKGVTRIHVWANYKEEYPDGIGRSQFIHYYSFWKKQVSP | -0.118 |
| HMAIKWTPEIEDEVSNKLKEKWSPEQISAWLKKNKSIMISHQRIYQFIVEDKMSGGNLYRNLRQ | -0.695 |
| HMGTRPAYAADAPNPQKRFIYHRIVDQLRNKATGAPISYRAIAAETGVSVQTVINIKNRMNQMLSEK | -0.0598 |
| HMATYNEVLKRLIEERKRLGLSQQEMARLVHITQSNYSKVEKGLHRLSYEELKYLSKANVDIFYILT | 0.136 |
| HMVGKGASIILDRVNLPQYLEKFNEDGFDTIESLKNLNEIDLKEMGVKKGHIRVILNYLHEEY | -0.501 |
| HMSAEVMLRRLIDENDPSSENARYILAVMLERKKILAPVDVKNEKKSKMLFYEHQKTGEAFIVRDP | -0.267 |
| HMDAQLRVPDLTPYNYSELKENTSLYEGFTIEVVEERSTGDYAAGTVLDQDPKADTLIQDGDSTVIKLVIA | -0.12 |
| HMAPVLTRREHEVLHLLTDGLDNRTIARNLFISEATVKFHLHNIMGKFGVHRRAALVSTALRG | -2.21 |
| HMRQFEPVEGYNPYADKNELHGYEYWGAKFADSRSPEETAWIKQQIDDENEDRRFISEAGLA | -0.0012 |
| HMDKVEQLMQNPVIQEKMSEGDRELLRNASLVVLGRLEDDGSIIQRFVELFGEEAYERLKSELM | 0.259 |
| HMKIQEVDYSTFLNMLNEKSIAQVEIQDNQIAFNSNQEGNKQIYVTGRIEEDTELVNRLQAAGVQFSRV | 0.079 |
